Measurements from the supplement of paper PMC5998384.

How the values were obtained:
[1] = tested on: HeLa Kyoto; assay: solubility change mitosis vs G1/S (difference of NP-40 vs SDS log2 ratios) (log2 ratio difference); higher = more soluble in mitosis
[2] = tested on: HeLa Kyoto; assay: melting temperature (median over replicates), in situ; higher = more thermally stable
[3] = tested on: HeLa Kyoto; assay: thermal stability score vs G1/S (z-score of summed log2 fold changes over temperatures); higher = more thermally stable than in G1/S
[4] = cell cycle stage: early G1 (4.5 h after nocodazole release)
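Wherever melting temperature (median over replicates), in situ is given: HeLa Kyoto cells synchronized by double thymidine or nocodazole block, proteins quantified by TMT10plex mass spectrometry, three independent biological replicates.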
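Wherever solubility change mitosis vs G1/S (difference of NP-40 vs SDS log2 ratios) is given: synchronized HeLa Kyoto cells (double thymidine block for G1/S, nocodazole release for mitosis), protein amounts in NP-40 versus SDS lysates quantified by mass spectrometry, three biological replicates.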
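Wherever thermal stability score vs G1/S (z-score of summed log2 fold changes over temperatures) is given: synchronized HeLa Kyoto cells, proteins quantified by TMT10plex mass spectrometry, three biological replicates, mitosis taken 0.5 h after nocodazole release, G1/S directly after double thymidine block.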

Row | Substance | solubility change mitosis (log2) [1] | further results
1 | ABCE1 | -0.151 | 
2 | ACTR2 | -0.105 | 
3 | AKR1B1 | -0.0682 | 
4 | ATP1A1 | -0.0968 | 
5 | ATP1B1 | -0.0049 | 
6 | BRD4 | 0.176 | 
7 | CDC73 | -0.0838 | 
8 | CLIC1 | 0.0655 | 
9 | CTSB | -0.123 | 
10 | DLG1 | -0.0806 | 
11 | EIF6 | 0.0864 | 
12 | GTPBP4 | 0.746 | 
13 | HAGH | 0.0733 | 
14 | HMGN2 | 1.68 | 
15 | ICT1 | 0.134 | 
16 | ITPA | 0.0757 | 
17 | IWS1 | 0.062 | 
18 | KDM1A | -0.0676 | 
19 | LAMTOR5 | -0.0394 | 
20 | MGGSGSRLSKELLAEYQDLTFLTKQEILLAHRRFCELLPQEQRSVESSLRAQVPFEQILSLPELKANPFKERICRVFSTSPAKDSLSFEDFLDLLSVFSDTATPDIKSHYAFRIFDFDDDGTLNREDLSRLVNCLTGEGEDTRLSASEMKQLIDNILEESDIDRDGTINLSEFQHVISRSPDFASSFKIVL [CIB1] | -0.0256 | 
21 | MGLEAQRLPGAEEAPVRVALRVRPLLPKELLHGHQSCLQVEPGLGRVTLGRDRHFGFHVVLAEDAGQEAVYQACVQPLLEAFFEGFNATVFAYGQTGSGKTYTMGEASVASLLEDEQGIVPRAMAEAFKLIDENDLLDCLVHVSYLEVYKEEFRDLLEVGTASRDIQLREDERGNVVLCGVKEVDVEGLDEVLSLLEMGNAARHTGATHLNHLSSRSHTVFTVTLEQRGRAPSRLPRPAPGQLLVSKFHFVDLAGSERVLKTGSTGERLKESIQINSSLLALGNVISALGDPQRRGSHIPYRDSKITRILKDSLGGNAKTVMIACVSPSSSDFDETLNTLNYASRAQNIRNRATVNWRPEAERPPEETASGARGPPRHRSETRIIHRGRRAPGPATASAAAAMRLGAECARYRACTDAAYSLLRELQAEPGLPGAAARKVRDWLCAVEGERSALSSASGPDSGIESASVEDQAAQGAGGRKEDEGAQQLLTLQNQVARLEEENRDFLAALEDAMEQYKLQSDRLREQQEEMVELRLRLELVRPGWGGPRLLNGLPPGSFVPRPHTAPLGGAHAHVLGMVPPACLPGDEVGSEQRGEQVTNGREAGAELLTEVNRLGSGSSAASEEEEEEEEPPRRTLHLRRNRISNCSQRAGARPGSLPERKGPELCLEELDAAIPGSRAVGGSKARVQARQVPPATASEWRLAQAQQKIRELAINIRMKEELIGELVRTGKAAQALNRQHSQRIRELEQEAEQVRAELSEGQRQLRELEGKELQDAGERSRLQEFRRRVAAAQSQVQVLKEKKQATERLVSLSAQSEKRLQELERNVQLMRQQQGQLQRRLREETEQKRRLEAEMSKRQHRVKELELKHEQQQKILKIKTEEIAAFQRKRRSGSNGSVVSLEQQQKIEEQKKWLDQEMEKVLQQRRALEELGEELHKREAILAKKEALMQEKTGLESKRLRSSQALNEDIVRVSSRLEHLEKELSEKSGQLRQGSAQSQQQIRGEIDSLRQEKDSLLKQRLEIDGKLRQGSLLSPEEERTLFQLDEAIEALDAAIEYKNEAITCRQRVLRASASLLSQCEMNLMAKLSYLSSSETRALLCKYFDKVVTLREEQHQQQIAFSELEMQLEEQQRLVYWLEVALERQRLEMDRQLTLQQKEHEQNMQLLLQQSRDHLGEGLADSRRQYEARIQALEKELGRYMWINQELKQKLGGVNAVGHSRGGEKRSLCSEGRQAPGNEDELHLAPELLWLSPLTEGAPRTREETRDLVHAPLPLTWKRSSLCGEEQGSPEELRQREAAEPLVGRVLPVGEAGLPWNFGPLSKPRRELRRASPGMIDVRKNPL [KIF7] |  | melting temperature ([2]; cell cycle stage: G1/S): 52.4 °C; melting temperature ([2]; cell cycle stage: mitosis): 51.4 °C; thermal stability score [3, 4]: 1.88; thermal stability score ([3]; cell cycle stage: mitosis): 2.73
22 | MREIVHIQAGQCGNQIGAKFWEVISDEHGIDPSGNYVGDSDLQLERISVYYNEASSHKYVPRAILVDLEPGTMDSVRSGAFGHLFRPDNFIFGQSGAGNNWAKGHYTEGAELVDSVLDVVRKECENCDCLQGFQLTHSLGGGTGSGMGTLLISKVREEYPDRIMNTFSVVPSPKVSDTVVEPYNATLSIHQLVENTDETYCIDNEALYDICFRTLKLATPTYGDLNHLVSATMSGVTTSLRFPGQLNADLRKLAVNMVPFPRLHFFMPGFAPLTARGSQQYRALTVPELTQQMFDAKNMMAACDPRHGRYLTVATVFRGRMSMKEVDEQMLAIQSKNSSYFVEWIPNNVKVAVCDIPPRGLKMSSTFIGNSTAIQELFKRISEQFTAMFRRKAFLHWYTGEGMDEMEFTEAESNMNDLVSEYQQYQDATAEEEGEMYEDDEEESEAQGPK [TUBB3] |  | melting temperature ([2]; cell cycle stage: G1/S): 52.3 °C; melting temperature ([2]; cell cycle stage: mitosis): 54.3 °C; thermal stability score [3, 4]: -0.669; thermal stability score ([3]; cell cycle stage: mitosis): 0.329
23 | MREIVHIQAGQCGNQIGAKFWEVISDEHGIDPTGSYHGDSDLQLERINVYYNEAAGNKYVPRAILVDLEPGTMDSVRSGPFGQIFRPDNFVFGQSGAGNNWAKGHYTEGAELVDSVLDVVRKESESCDCLQGFQLTHSLGGGTGSGMGTLLISKIREEYPDRIMNTFSVMPSPKVSDTVVEPYNATLSVHQLVENTDETYSIDNEALYDICFRTLKLTTPTYGDLNHLVSATMSGVTTCLRFPGQLNADLRKLAVNMVPFPRLHFFMPGFAPLTSRGSQQYRALTVPELTQQMFDSKNMMAACDPRHGRYLTVAAIFRGRMSMKEVDEQMLNVQNKNSSYFVEWIPNNVKTAVCDIPPRGLKMSATFIGNSTAIQELFKRISEQFTAMFRRKAFLHWYTGEGMDEMEFTEAESNMNDLVSEYQQYQDATADEQGEFEEEEGEDEA [TUBB2A] |  | melting temperature ([2]; cell cycle stage: G1/S): 56.7 °C; melting temperature ([2]; cell cycle stage: mitosis): 54.9 °C; thermal stability score [3, 4]: -0.598; thermal stability score ([3]; cell cycle stage: mitosis): -2.95
24 | MREYKLVVLGSGGVGKSALTVQFVQGIFVEKYDPTIEDSYRKQVEVDAQQCMLEILDTAGTEQFTAMRDLYMKNGQGFALVYSITAQSTFNDLQDLREQILRVKDTDDVPMILVGNKCDLEDERVVGKEQGQNLARQWNNCAFLESSAKSKINVNEIFYDLVRQINRKTPVPGKARKKSSCQLL [RAP1B] |  | melting temperature ([2]; cell cycle stage: G1/S): 58.5 °C; melting temperature ([2]; cell cycle stage: mitosis): 58.5 °C; thermal stability score [3, 4]: -0.701; thermal stability score ([3]; cell cycle stage: mitosis): -1.33
